Data published in patent US20200216495A1 (ADRX, published 2020).
Several values for one entry are separate records, joined by “and”; a condition that tells them apart may be missing. Identical values can stand only once. Square brackets hold non-standard residues; d marks the D form. Ends that are not written are not given here. dCit = NC(=O)NCCC[C@@H](N)C(=O)O

Biological target: Ac-VQIINK-NH2 (SEQ ID NO: 23) (N-terminal acetyl (Ac); C-terminal amide (NH2))
Assay: cell-based or functional assay

VQIINK Inhibition IC50	Binder
1.95 µm	[dW][dR][dF][dK][dF][dR][dW] [wrfkfrw]
1.83 µm	[dW][dW][dL][dR][dI][dH][dW][dW] [wwlrihww]
1.8 µm	[dF][dR][dL][dK][dL][dR][dF][dH] [frlklrfh]
1.77 µm	[dH][dR][dL][dK][dV][dR][dW][dW] [hrlkvrww]
2.11 µm	[dW][dW][dL][dR][dI][dH][dW] [wwlrihw]
1.79 µm	[dF][dH][dL][dE][dI][dR][dH][dW] [fhleirhw]
2.12 µm	[dW][dR][dL][dQ][dV][dR][dW] [wrlqvrw]
1.96 µm	[dL][dK][dI][dK][dI][dH][dY] [lkikihy]
1.74 µm	[dW][dF][dK][dI][dK][dL][dE][dL] [wfkiklel]
1.44 µm	[dW][dK][dL][dK][dL][dW][dW][dW] [wklklwww]
1.41 µm	[dL][dK][dI][dR][dI][dA][dY] [lkiriay]
1.53 µm	[dW][dK][dV][dW][dV][dR][dY][dW] [wkvwvryw]
2.12 µm	[dW][dH][dV][dK][dF][dE][dL][dF] [whvkfelf]
1.57 µm	[dL][dK][dI][dR][dI][dE][dH][dY] [lkiriehy]
2.13 µm	[dL][dK][dI][dCit][dI][dH][dY] [lkizihy]
1.76 µm	[dW][dK][dL][dK][dL][dR][dW][dW] [wklklrww]
1.75 µm	[dL][dK][dI][dR][dI][dH][dE][dH] [lkiriheh]
1.98 µm	[dW][dR][dL][dR][dI][dE][dW] [wrlriew]
1.81 µm	[dL][dK][dI][dR][dI][dH][dL][dH] [lkirihlh]
1.99 µm	[dW][dW][dL][dK][dL][dR][dW] [wwlklrw]

VQIINK Inhibition IC50	Binder
1.53 µm	[dL][dK][dI][dR][dI][dF][dY][dH] [lkirifyh]
1.76 µm	[dL][dK][dL][dE][dI][dR][dW][dH] [lkleirwh]
1.89 µm	[dL][dK][dI][dR][dI][dW][dY][dH] [lkiriwyh]
1.58 µm	[dM][dR][dL][dR][dI][dH][dW] [mrlrihw]
1.92 µm	[dW][dR][dL][dK][dV][dR][dW][dH] [wrlkvrwh]
1.71 µm	[dL][dA][dI][dR][dI][dH][dY] [lairihy]
1.97 µm	[dW][dR][dL][dK][dV][dR][dW][dW] [wrlkvrww]
2.2 µm	[dF][dK][dL][dK][dL][dR][dW][dF] [fklklrwf]
1.95 µm	[dW][dK][dL][dW][dL][dR][dW] (not fully specified; printed as wklwlrw) [wklwlrw]
1.48 µm	[dL][dR][dV][dQ][dV][dR][dL] [lrvqvrl]
1.73 µm	[dW][dR][dL][dW][dI][dH][dW] [wrlwihw]
1.98 µm	[dL][dA][dI][dR][dI][dH][dY][dH] [lairihyh]
1.84 µm	[dL][dR][dI][dR][dI][dR][dF][dH] [lririrfh]
1.54 µm	[dW][dR][dL][dK][dV][dR][dW][dE] [wrlkvrwe]
1.77 µm	[dF][dK][dI][dH][dI][dK][dH][dY] [fkihikhy]
1.63 µm	[dF][dW][dL][dK][dL][dR][dW][dF] [fwlklrwf]
2.1 µm	[dL][dR][dI][dE][dI][dE][dW][dH] [lrieiewh]
1.58 µm	[dW][dK][dL][dW][dL][dR][dW][dW] [wklwlrww]
1.54 µm	[dW][dR][dL][dR][dL][dR][dW] [wrlrlrw]
1.88 µm	[dW][dR][dL][dR][dI][dH][dW][dW] [wrlrihww]

VQIINK Inhibition IC50	Binder
1.49 µm and 2.92 µm	[dL][dK][dI][dR][dI][dR][dY][dH] [lkiriryh]
2.02 µm	[dF][dR][dI][dR][dI][dH][dH][dF] [fririhhf]
1.46 µm	[dL][dK][dI][dR][dI][dL][dY][dH] [lkirilyh]
2.15 µm	[dW][dR][dL][dK][dV][dQ][dW] [wrlkvqw]
2.17 µm	[dW][dK][dV][dW][dV][dR]G[dW] (not fully specified (residue 7); printed as wkvwvrgw) [wkvwvrgw]
1.57 µm	[dW][dW][dR][dV][dK][dL][dR][dW] [wwrvklrw]
2.01 µm	[dF][dH][dI][dR][dL][dE][dW][dH] [fhirlewh]
1.7 µm	[dW][dR][dL][dK][dV][dR][dW][dR] [wrlkvrwr]
1.97 µm	[dH][dR][dL][dK][dV][dR][dW][dH] [hrlkvrwh]
1.52 µm	[dF][dR][dI][dK][dL][dK][dW][dH] [friklkwh]
1.75 µm	[dW][dR][dL][dR][dI][dW][dW][dW] [wrlriwww]
1.55 µm	[dL][dD][dL][dR][dF][dK][dL][dY] [ldlrfkly]
1.99 µm	[dL][dK][dI][dR][dI][dH][dY][dH] [lkirihyh]
1.73 µm	[dW][dR][dI][dR][dI][dR][dW] [wririrw]
1.78 µm	[dF][dE][dI][dR][dL][dH][dH][dW] [feirlhhw]
1.47 µm	[dF][dR][dI][dK][dI][dR][dW] [frikirw]
1.81 µm	[dF][dR][dL][dR][dI][dH][dW][dF] [frlrihwf]
1.55 µm	[dF][dK][dI][dK][dL][dK][dW] [fkiklkw]
1.57 µm	[dF][dE][dL][dR][dL][dH][dW][dH] [felrlhwh]
1.66 µm	[dW][dR][dF][dK][dV][dR][dW] [wrfkvrw]
